“And” between values parts separate entries of the source, which are not always exact repeats. Identical values can stand only once.
Columns and labels:
[1] = molecular target: T1, human CD16a (human FcγRIIIA), V isoform (human, UniProt P08637 17-208); experiment: SPR (Biacore T200), His-tagged huCD16a captured by anti-His antibody on CM5 chip, antibody injected at 5.8-3000 nmol/L, steady state fit
T1 construct: also called HuFcyRIIIaV; CD16a (V176)
From the text: All analyte concentrations were run in duplicate together with multiple buffer blanks for double referencing.

[2] = molecular target: T2, cynomolgus CD32a (cynomolgus); experiment: SPR, fit Steady State Affinity, Exp No 2
T2 construct: also called CyFcyRIIa

[3] = molecular target: T3, cynomolgus CD32b (cynomolgus); experiment: SPR, fit Steady State Affinity, Exp No 2
T3 construct: also called CyFcyRIIb

[4] = molecular target: T4, human NKp46 on NK cells purified from PBMC of healthy donors (human, UniProt O76036 22-304); experiment: flow cytometry titration on resting human NK cells from healthy donors, detection with goat anti-human IgG Fcγ-PE, 4-parameter fit; mean of 3 NK donors; NK cells also carry CD16a
T4 construct: whole, on cells; also called NKp46 on donor NK cells
T4 sequence (O76036 22-304): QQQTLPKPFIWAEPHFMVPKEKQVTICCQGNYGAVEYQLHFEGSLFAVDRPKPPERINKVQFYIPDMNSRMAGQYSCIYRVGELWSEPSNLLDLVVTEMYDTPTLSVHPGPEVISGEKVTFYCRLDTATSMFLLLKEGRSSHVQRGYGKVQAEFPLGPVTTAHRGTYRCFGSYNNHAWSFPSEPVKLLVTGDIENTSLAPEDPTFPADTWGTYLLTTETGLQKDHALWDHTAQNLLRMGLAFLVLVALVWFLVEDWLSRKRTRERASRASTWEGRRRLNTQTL
Method: (§1) After staining, cells were resuspended in BD Cellfix and analyzed by flow cytometry. Parameters were recorded and analysed with FlowJo software. Staining EC50 values were calculated with GraphPad prism using 4 parameter logistics non-linear regression model.

[5] = molecular target: T5, recombinant human NKp46 extracellular domain (Gln22-Asn255) with C-terminal 6xHis tag (human, UniProt O76036 22-255); experiment: SPR (Biacore 8K), NKCE captured by anti-human Fc, antigen as analyte, 1:1 model; Experiment No 3
T5 construct: range 22-255; also called huNKp46
T5 sequence (O76036 other isoform, or with tags, fused parts or gaps limits assumed): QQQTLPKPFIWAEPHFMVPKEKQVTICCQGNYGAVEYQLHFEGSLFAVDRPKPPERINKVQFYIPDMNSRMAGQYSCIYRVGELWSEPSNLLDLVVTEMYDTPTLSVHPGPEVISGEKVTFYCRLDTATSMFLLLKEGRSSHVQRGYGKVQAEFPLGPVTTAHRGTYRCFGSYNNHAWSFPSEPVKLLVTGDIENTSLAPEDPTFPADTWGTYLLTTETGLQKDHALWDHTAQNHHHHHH
Method: (§2) Measurements were performed in multicycle kinetics experiments for each antibody using a Biacore 8K instrument. In each multicycle experiment the antibodies were captured via an anti-hum a Fc antibody immobilized on a series S CM5 sensor chip (human antibody capture kit, Cytiva, Uppsala, Catalog No. BR1008-39).
(§3) The antigens, diluted as described above (concentration range 0.1 nM to 50 nM), were injected at a flow rate of 60 μL/min for 240 sec followed by a dissociation phase of 400 sec. All analyte concentrations were run in duplicate together with multiple buffer blanks for double referencing. Regeneration of the capture surface was performed with regeneration solution (3 mol/L MgCl2) for 60 sec at 30 μL/min. Binding kinetics data were evaluated with the Biacore 8K Evaluation Software version 1.1.1.7442 using a 1:1 binding model with mass transport limitation.

[6] = molecular target: T6, cyno BCMA (PPB-17990) (cynomolgus, UniProt A0A2K5UD97 1-53); experiment: as above
T6 construct: also called cynomolgus BCMA
T6 sequence (A0A2K5UD97 entry or part of it): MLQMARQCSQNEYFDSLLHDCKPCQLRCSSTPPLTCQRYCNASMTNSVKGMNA
Method: as §2, §3

[7] = molecular target: recombinant human BCMA (human, UniProt Q02223 1-54); experiment: as above
Method: as §2, §3

[8] = molecular target: T7, recombinant cynomolgus NKp46 extracellular domain with C-terminal Flag-M2 tag (cynomolgus, UniProt Q95JB9 22-254); experiment: as above
T7 construct: range 22-254; also called cyno NKp46; not shown: C-terminal Flag-M2 tag
T7 sequence (Q95JB9 22-254): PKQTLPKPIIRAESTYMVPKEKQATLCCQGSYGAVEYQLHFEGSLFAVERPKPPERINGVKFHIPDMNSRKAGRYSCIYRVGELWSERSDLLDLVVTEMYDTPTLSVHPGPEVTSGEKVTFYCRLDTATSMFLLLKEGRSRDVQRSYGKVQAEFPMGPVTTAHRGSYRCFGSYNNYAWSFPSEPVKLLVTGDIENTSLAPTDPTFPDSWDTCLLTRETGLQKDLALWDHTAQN
Method: as §2, §3

[9] = molecular target: human neonatal Fc receptor (FcRn) (human, UniProt P55899 24-297; P61769 21-119); experiment: SPR, binding to huFcRn at pH 6.0
Sequence of human neonatal Fc receptor (FcRn) (P55899 24-297 limits assumed, chain 1 of 2): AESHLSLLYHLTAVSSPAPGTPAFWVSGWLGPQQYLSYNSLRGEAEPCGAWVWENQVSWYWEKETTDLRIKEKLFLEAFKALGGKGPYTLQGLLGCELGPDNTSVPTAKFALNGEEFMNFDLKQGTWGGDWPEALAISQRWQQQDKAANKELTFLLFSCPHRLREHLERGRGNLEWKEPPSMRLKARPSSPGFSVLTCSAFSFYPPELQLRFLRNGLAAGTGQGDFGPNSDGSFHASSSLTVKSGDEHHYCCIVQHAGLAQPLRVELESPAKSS
Sequence of human neonatal Fc receptor (FcRn) (P61769 21-119 limits assumed, chain 2 of 2): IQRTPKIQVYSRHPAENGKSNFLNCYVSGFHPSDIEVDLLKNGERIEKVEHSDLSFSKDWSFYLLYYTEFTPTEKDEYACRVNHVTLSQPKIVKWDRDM

[10] = molecular target: T8, human CD64 (human FcγRI) (human, UniProt P12314 16-292, limits assumed); experiment: SPR, fit 1:1 Binding, Exp No 1
T8 construct: also called HuFcyRI
T8 sequence (P12314 16-292 limits assumed): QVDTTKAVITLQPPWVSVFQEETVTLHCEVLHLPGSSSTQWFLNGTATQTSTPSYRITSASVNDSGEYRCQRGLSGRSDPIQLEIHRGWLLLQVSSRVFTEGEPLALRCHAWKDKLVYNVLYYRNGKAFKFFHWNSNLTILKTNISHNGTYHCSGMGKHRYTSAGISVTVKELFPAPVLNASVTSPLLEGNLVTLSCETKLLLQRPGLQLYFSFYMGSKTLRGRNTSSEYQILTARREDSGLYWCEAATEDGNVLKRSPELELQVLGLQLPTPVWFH

[11] = molecular target: T8, human CD64 (human FcγRI); experiment: SPR, fit 1:1 Binding, Exp No 3
[12] = molecular target: T9, cynomolgus CD16 (cynomolgus, UniProt Q8SPW2 17-208); experiment: SPR, fit Two State Reaction, mean of 3 experiments
T9 construct: also called CyFcyRIII
T9 sequence (Q8SPW2 17-208): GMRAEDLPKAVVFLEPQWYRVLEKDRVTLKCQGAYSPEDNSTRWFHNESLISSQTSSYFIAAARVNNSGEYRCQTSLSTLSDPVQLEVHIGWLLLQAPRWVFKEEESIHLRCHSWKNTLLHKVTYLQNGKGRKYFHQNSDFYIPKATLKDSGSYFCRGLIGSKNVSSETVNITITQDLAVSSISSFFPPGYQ

[13] = molecular target: T1, human CD16a (human FcγRIIIA), V isoform; experiment: SPR, fit Two State Reaction, mean of 3 experiments
[14] = molecular target: T10, human BCMA on RPMI 8226 multiple myeloma cells (human, UniProt Q02223 1-184); experiment: flow cytometry titration on RPMI 8226 cells, detection with goat anti-human IgG Fcγ-PE, 4-parameter fit; mean of 5 independent titrations
T10 construct: whole, on cells; also called BCMA on RPMI cells
T10 sequence (looked up): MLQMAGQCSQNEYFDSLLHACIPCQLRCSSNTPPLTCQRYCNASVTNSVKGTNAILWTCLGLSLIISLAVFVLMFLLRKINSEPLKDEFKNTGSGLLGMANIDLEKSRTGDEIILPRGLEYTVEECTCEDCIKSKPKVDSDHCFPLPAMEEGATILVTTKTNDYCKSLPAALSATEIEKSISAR
Method: as §1

[15] = molecular target: T4, human NKp46 on NK cells purified from …; experiment: flow cytometry titration on resting human NK cells from healthy donors, detection with goat anti-human IgG Fcγ-PE; representative titration; NK cells also carry CD16a
Method: as §1

[16] = molecular target: T4, human NKp46 on NK cells purified from …; experiment: flow cytometry titration on resting human NK cells from healthy donors, detection with goat anti-human IgG Fcγ-PE, 4-parameter fit; NK cells also carry CD16a
Method: as §1

[17] = molecular target: T9, cynomolgus CD16; experiment: SPR, fit Two State Reaction, Exp No 3
[18] = molecular target: T1, human CD16a (human FcγRIIIA), V isoform; experiment: SPR, fit Two State Reaction, Exp No 3

T1 sequence (P08637 17-208 F176V limits assumed): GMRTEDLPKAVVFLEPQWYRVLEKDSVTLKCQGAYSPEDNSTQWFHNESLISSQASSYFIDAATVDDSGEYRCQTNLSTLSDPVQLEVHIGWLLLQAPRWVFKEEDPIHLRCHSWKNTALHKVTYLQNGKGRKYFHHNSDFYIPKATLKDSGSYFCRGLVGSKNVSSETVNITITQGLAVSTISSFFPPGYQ

B1: NKp46-BCMA_Fc-ADE-DSB NKCE (bispecific antibody, human IgG1, kappa)
light: QTVVTQEPSLTVSPGGTVTLTCASSTGTVTPSNYANWVQQKPGQAFRGLIGDNNSRPPGTPARFSASLLGGKAALTLSGVQPEDEAEYYCALWFGNQWVFGGGTKLTVLGGGGSGGGGSDIQMTQSPSSLSASVGDRVTITCRASQDISNYLNWYQQKPGKAPKLLIYYTSRLHSGVPSRFSGSGSGTDFTFTISSLQPEDIATYFCQQGNTRPWTFGGGTKVEIKGGGGSGGGGSRTVAAPSVFIFPPSDEQLKSGTASVVCLLNNFYPREAKVQWKVDNALQSGNSQESVTEQDSKDSTYSLSSTLTLSKADYEKHKVYACEVTHQGLSSPVTKSFNRGEC
heavy: QVQLVQSGAEVKKPGSSVKVSCKASGYTFSDYVINWVRQAPGQGLEWMGEIYPGSGTNYYNEKFKAKATITADKSTSTAYMELSSLRSEDTAVYYCARRGRYGLYAMDYWGQGTTVTVSSQVQLVESGGGVVQPGRSLRLSCAASGFTFSNFGMHWVRQAPGRGLEWVAVIWSDETNRYYADSVKGRFTVSRDNVKSTVYLQMNSLISEDTAVYYCARDQQYCSSDSCFTWFDPWGQGTLVTVSSASTKGPSVFPLAPSSKSTSGGTAALGCLVKDYFPEPVTVSWNSGALTSGVHTFPAVLQSSGLYSLSSVVTVPSSSLGTQTYICNVNHKPSNTKVDKKVEPKSCDKTHTCPPCPAPELLAGPDVFLFPPKPKDTLMISRTPEVTCVVVDVSHEDPEVKFNWYVDGVEVHNAKTKPCEEQYNSTYRCVSVLTVLHQDWLNGKEYKCKVSNKALPAPEEKTISKAKGQPREPQVYTLPPCRDELTKNQVSLWCLVKGFYPSDIAVEWESNGQPENNYKTTPPVLDSDGSFFLYSKLTVDKSRWQQGNVFSCSVMHEALHNHYTQKSLSLSPG
chain: DKTHTCPPCPAPELLAGPDVFLFPPKPKDTLMISRTPEVTCVVVDVSHEDPEVKFNWYVDGVEVHNAKTKPCEEQYNSTYRCVSVLTVLHQDWLNGKEYKCKVSNKALPAPEEKTISKAKGQPREPQVCTLPPSRDELTKNQVSLSCAVKGFYPSDIAVEWESNGQPENNYKTTPPVLDSDGSFFLVSKLTVDKSRWQQGNVFSCSVMHEALHNRFTQKSLSLSPG
Kd [1]: 165 nM | Kd [2]: 1440 nM | Kd [3]: 1070 nM | EC50 [4]: 0.643 µg/mL | Kd [5]: 12.5 nM | koff [5]: 0.0018 s⁻¹ | kon [5]: 140000 M⁻¹ s⁻¹ | Kd [6]: 0.3 nM | koff [6]: 6e-05 s⁻¹ | kon [6]: 180000 M⁻¹ s⁻¹ | Kd [7]: 0.3 nM | koff [7]: 5.7e-05 s⁻¹ | kon [7]: 190000 M⁻¹ s⁻¹ | Kd [8]: 17.8 nM | koff [8]: 0.0033 s⁻¹ | kon [8]: 190000 M⁻¹ s⁻¹ | Kd [9]: 756 nM | Kd [10]: 0.32 nM | Kd [11]: 0.38 nM | Kd [12]: 11.7 nM | Kd [13]: 13.4 nM | EC50 [14]: 1.33 µg/mL | EC50 (read off the curve) [15]: ~0.9 µg/mL | EC50 [16]: 0.585 µg/mL and 0.863 µg/mL and 0.481 µg/mL | Kd [17]: 15.7 nM | Kd [18]: 16.5 nM

Source: patent publication US20240034816A1 (Sanofi, published 2024)
